The target of data set [1] is recombinant wild-type ADAMTS13 containing a V5- and a His-tag (wt-rADAMTS13) (human) (UniProt Q76LX8). Description: competition immuno-sorbent assay, fragment 10 nM pre-incubated with wt-rADAMTS13, immobilized pd-VWF.
For data set [2] the target is unchanged. Description: cell-based or functional assay.
The target in data set [3] is purified plasma-derived von Willebrand factor (pd-VWF), P04275.
For data set [4], the target named is T1, purified plasma-derived von Willebrand factor (pd-VWF) (human, UniProt P04275 764-2813).
T1 construct: mature; Multimeric plasma protein; also called full-length VWF; globular full-length VWF
Nature of the data set: competitive immuno-sorbent assay, mAb508 0 to 50 µg/ml against ADAMTS13 (4 µg/ml) on coated VWF (2 µg/ml).

Data set [5] has as its target T1, purified plasma-derived von Willebrand …. Nature of the data set: BLI (Octet-QK), equilibrium responses, mAb508 on protein A biosensors, pd-VWF in solution, single class of binding sites.
Experimental: Subsequently, biosensors were incubated with various concentrations purified pd-VWF (0-0.2 mg/ml) and association of VWF was monitored real-time for a 10-min period until equilibrium was reached. Data represent mean±SD of four independent associations and depicted are the calculated responses (shift in nm) at equilibrium versus VWF concentration. The drawn line represents the best fit using a model describing the interaction of a single class of binding sites.
Biolayer interferometry-analysis: Equilibrium binding assays were performed via biolayer interferometry (BLI)-analysis using Octet-QK equipment (ForteBio, Reading, UK) essentially as described (26). […] Biosensors were then incubated for 5 min in BLI-buffer to achieve stable baseline, and subsequently incubated with various concentrations of pd-VWF in BLI-buffer for 10 min. All incubations were performed at room temperature under continuous shaking (1000 rpm). Data were analyzed using Octet Software version 4.0.

Values joined by “and” are separate entries in the source; they are usually repeats but may differ in a detail not shown here. Equal values may be shown once.

“A1-Fc (from UniProt P04275 1261-1478) (Fc fusion)”: the inhibition of ADAMTS13 binding to immobilized VWF in data set [1] was under 20%.

As to “A2-Fc (from UniProt P04275 1480-1672) (Fc fusion)”, in data set [1], the inhibition of ADAMTS13 binding to immobilized VWF was 65%. Besides, the residual proteolysis of VWF by ADAMTS13, vortex-based degradation assay, A2-Fc 1 µg/ml in data set [2] stood at 96%.

In the case of “A3-Fc (from UniProt P04275 1681-1878) (Fc fusion)”, the inhibition of ADAMTS13 binding to immobilized VWF in data set [1] was under 20%.

Take “D4-Fc (from UniProt P04275 1947-2301) (Fc fusion)”: the inhibition of ADAMTS13 binding to immobilized VWF in data set [1] was under 20%.

Turning to “D′D3-HPC4 (from UniProt P04275 764-1247)”, in data set [1], the inhibition of ADAMTS13 binding to immobilized VWF is under 20%.

B1: recombinant wild-type ADAMTS13 containing a V5- and a His-tag (wt-rADAMTS13) (protein)
chain: AAGGILHLELLVAVGPDVFQAHQEDTERYVLTNLNIGAELLRDPSLGAQFRVHLVKMVILTEPEGAPNITANLTSSLLSVCGWSQTINPEDDTDPGHADLVLYITRFDLELPDGNRQVRGVTQLGGACSPTWSCLITEDTGFDLGVTIAHEIGHSFGLEHDGAPGSGCGPSGHVMASDGAAPRAGLAWSPCSRRQLLSLLSAGRARCVWDPPRPQPGSAGHPPDAQPGLYYSANEQCRVAFGPKAVACTFAREHLDMCQALSCHTDPLDQSSCSRLLVPLLDGTECGVEKWCSKGRCRSLVELTPIAAVHGRWSSWGPRSPCSRSCGGGVVTRRRQCNNPRPAFGGRACVGADLQAEMCNTQACEKTQLEFMSQQCARTDGQPLRSSPGGASFYHWGAAVPHSQGDALCRHMCRAIGESFIMKRGDSFLDGTRCMPSGPREDGTLSLCVSGSCRTFGCDGRMDSQQVWDRCQVCGGDNSTCSPRKGSFTAGRAREYVTFLTVTPNLTSVYIANHRPLFTHLAVRIGGRYVVAGKMSISPNTTYPSLLEDGRVEYRVALTEDRLPRLEEIRIWGPLQEDADIQVYRRYGEEYGNLTRPDITFTYFQPKPRQAWVWAAVRGPCSVSCGAGLRWVNYSCLDQARKELVETVQCQGSQQPPAWPEACVLEPCPPYWAVGDFGPCSASCGGGLRERPVRCVEAQGSLLKTLPPARCRAGAQQPAVALETCNPQPCPARWEVSEPSSCTSAGGAGLALENETCVPGADGLEAPVTEGPGSVDEKLPAPEPCVGMSCPPGWGHLDATSAGEKAPSPWGSIRTGAQAAHVWTPAAGSCSVSCGRGLMELRFLCMDSALRVPVQEELCGLASKPGSRREVCQAVPCPARWQYKLAACSVSCGRGVVRRILYCARAHGEDDGEEILLDTQCQGLPRPEPQEACSLEPCPPRWKVMSLGPCSASCGLGTARRSVACVQLDQGQDVEVDEAACAALVRPEASVPCLIADCTYRWHVGTWMECSVSCGDGIQRRRDTCLGPQAQAPVPADFCQHLPKPVTVRGCWAGPCVGQGTPSLVPHEEAAAPGRTTATPAGASLEWSQARGLLFSPAPQPRRLLPGPQENSVQSSACGRQHLEPTGTIDMRGPGQADCAVAIGRPLGEVVTLRVLESSLNCSAGDMLLLWGRLTWRKMCRKLLDMTFSSKTNTLVVRQRCGRPGGGVLLRYGSQLAPETFYRECDMQLFGPWGEIVSPSLSPATSNAGGCRLFINVAPHARIAIHALATNMGAGTEGANASYILIRDTHSLRTTAFHGQQVLYWESESSQAEMEFSEGFLKAQASLRGQYWTLQSWVPEMQDPQSWKGKEGT
Turning to B1, the “proteolytic cleavage of pd-VWF (30 µg/ml) by recombinant ADAMTS13 (3 µg/ml), vortex-based degradation assay” value in data set [3] is on record as “proteolytic cleavage of pd-VWF (30 µg/ml) by recombinant ADAMTS13 (3 µg/ml) increases as a function of incubation time, with maximal degradation obtained after 30 min”.

B2: anti-human von Willebrand factor monoclonal antibody 508 (mAb508) (antibody, mouse IgG1, kappa, V domains shown)
VH: DVQLQESGPDLVEPSQSLSLSCTVTGYSITSGYSWHWIRQFPGNKLEWLGYIHYSGTTTYNPSLHSRVSITRDTSKNQFFLQLNSVSTEDTATYFCGREGYHWGQGTTLTVSS
VL: DVVMTQTPLSLPVSLGDQASISCRSSQSLVHSIGNTYLHWYLQKPGQSPKLLIYKVSNRFSGVPDRFSGSGSGTDFTLKISRVEAEDLGVYFCSQTTHVPLTFGGGTRLEIKR
notes: Murine monoclonal antibody purified from hybridoma; also called antibody mAb508
In data set [4], B2 showed an IC50 of 0.09 µg/mL. In addition, the Kd in data set [5] was 13 µg/mL and 52 nM.

Values taken from patent US20170037148A1 (INSERM INSTITUT NATIONAL DE LA SANT ET DE LA RECHERCHE M …, published 2017).
